Results reported in PMC13544220, “Glycemic and bodyweight effects of GIPR coding variation reflect differences in surface expression and intrinsic functional impairment” (Science Advances, 2026).

Key:
Type in all cases: cell-based, human
[1] = test system: wild-type and variant SNAP-GIPR; test: Single-concentration GIP cAMP response by HTRF in AD293 cells; conditions: Fig S3F, HTRF, mean;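 also: ratio to experiment-wide average response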
Protocol: (§1) All variants were tested in parallel on each occasion to control for transfection efficiency differences between experiments.

[2] = test system: wild-type and variant SNAP-GIPR; test: Constitutive and agonist-mediated internalization, reversible SNAP-tag labelling, INS-1 cells; design: key to Internalisation, GIP-only / Internalisation, Vehicle / Internalisation, +GIP: % internalization: residual fluorescence after Mesna vs pre-Mesna; conditions: Mean
Method in brief: (§2)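 Percentage internalization calculated as specific SNAP fluorescence remaining after 10 min Mesna exposure, relative to pre-Mesna signal, imaged in TNE buffer (pH 8.6).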

[3] = test system: wild-type and variant SNAP-GIPR; test: Surface SNAP-GIPR expression (SNAP-tag labelling) in INS-1 cells; conditions: Fig 4G; Mean
Method in brief: (§3)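 Read-out: whole-cell fluorescence of surface-only SNAP label (Alexa Fluor 647, 500 nM, 10 min, RT), wide-field 20X, several FOVs per well. Flat-field corrected, phase-contrast masked, nontransfected-well signal subtracted; normalized to experiment mean or wild-type.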

[4] = test system: wild-type and variant SNAP-GIPR; test: Constitutive and agonist-mediated internalization, reversible SNAP-tag labelling, AD293 cells; design: key to Internalisation, Vehicle / Internalisation, +GIP / Internalisation, GIP-only: % internalization: residual fluorescence after Mesna vs pre-Mesna; Surface expression: unit not given here; conditions: Mean
Method in brief: as §2

[5] = test system: wild-type and variant SNAP-GIPR; test: Surface SNAP-GIPR expression (SNAP-tag labelling) in AD293 cells; conditions: for AD293 Surface: Fig S3E, mean; for Surface SNAP-GIPR expression: sheet Fig 1C;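 as to all read-outs here: scaled to the experimental average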
Method in brief: as §3

[6] = test system: wild-type and variant SNAP-GIPR; test: Single-concentration GIP cAMP response by HTRF in INS-1 cells; conditions: Fig S3E, mean
Protocol: as §1

[7] = test system: wild-type and variant SNAP-GIPR; test: cADDis cAMP imaging in AD293 cells, ensemble, expression-matched and per decile; conditions: Fig S3F, cADDis, mean;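 also: Ensemble cells as % of IBMX/FSK response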
Method in brief: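 AD293 cells were transfected with SNAP-GIPR constructs and cotransduced with the cADDis Green Up cAMP sensor, then labeled after 24 h with 500 nM SNAP-Surface Alexa Fluor 647. Per-cell cADDis intensity was tracked at 37°C in KRBH with 6 mM glucose and 0.1% BSA.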

B1: D66G (protein, UniProt P48546 22-466, looked up, variant D66G)
Gastric inhibitory …: RAETGSKGQTAGELYQRWERYRRECQETLAAAEPPSGLACNGSFGMYVCWDYAAPNATARASCPWYLPWHHHVAAGFVLRQCGSDGQWGLWRDHTQCENPEKNEAFLDQRLILERLQVMYTVGYSLSLATLLLALLILSLFRRLHCTRNYIHINLFTSFMLRAAAILSRDRLLPRPGPYLGDQALALWNQALAACRTAQIVTQYCVGANYTWLLVEGVYLHSLLVLVGGSEEGHFRYYLLLGWGAPALFVIPWVIVRYLYENTQCWERNEVKAIWWIIRTPILMTILINFLIFIRILGILLSKLRTRQMRCRDYRLRLARSTLTLVPLLGVHEVVFAPVTEEQARGALRFAKLGFEIFLSSFQGFLVSVLYCFINKEVQSEIRRGWHHCRLRRSLGEEQRQLPERAFRALPSGSGPGEVPTSRGLSSGTLPGPGNEASRELESYC
AD293 100 pM HTRF ([1]; AD293, 100 pM): 0.1227 | AD293 100 nM HTRF ([1]; AD293, 100 nM): 0.328 | +GIP internalisation (100 nM) ([2]; Fig 4G, GIP 100 nM): 0.08951 | GIP-specific internalisation (100 nM) ([2]; Fig 4G, GIP 100 nM): -0.01151 | Constitutive internalisation (100 nM) ([2]; Fig 4G): 0.101 | Internalisation, +GIP ([2]; Fig S4C, INS-1): 50.62 | Internalisation, GIP-only ([2]; Fig S4C, INS-1): -7.618 | Internalisation, Vehicle ([2]; Fig S4C, INS-1): 58.2383 | Surface expression [3]: 0.1735 | +GIP internalisation (100 nM) ([4]; Fig 4E, GIP 100 nM): 0.106 | GIP-specific internalisation (100 nM) ([4]; Fig 4E, GIP 100 nM): -0.001031 | Constitutive internalisation (100 nM) ([4]; Fig 4E): 0.1071 | Surface expression ([4]; Fig 4E): 0.1742 | Internalisation, +GIP ([4]; Fig S4C, AD293): 61.627 | Internalisation, GIP-only ([4]; Fig S4C, AD293): -0.8775 | Internalisation, Vehicle ([4]; Fig S4C, AD293): 62.5045 | AD293 Surface ([5]; column repeated, paired with cAMP 100 nM): 0.2845 | AD293 Surface ([5]; paired with cAMP 100 pM): 0.2845 | Surface SNAP-GIPR expression ([5]; replicate 1): 0.2625 | Surface SNAP-GIPR expression ([5]; replicate 2): 0.397 | Surface SNAP-GIPR expression ([5]; replicate 3): 0.1659 | Surface SNAP-GIPR expression ([5]; replicate 4): 0.02117 | Surface SNAP-GIPR expression ([5]; replicate 5): 0.3372 | Surface SNAP-GIPR expression ([5]; replicate 6): 0.161 | Surface SNAP-GIPR expression ([5]; replicate 7): 0.3578 | Surface SNAP-GIPR expression ([5]; replicate 8): 0.377 | Surface SNAP-GIPR expression ([5]; replicate 9): 0.35 | Surface SNAP-GIPR expression ([5]; replicate 10): 0.5096 | Surface SNAP-GIPR expression ([5]; replicate 11): 0.4534 | Surface SNAP-GIPR expression ([5]; replicate 12): 0.5149 | Surface SNAP-GIPR expression ([5]; replicate 13): 0.197 | Surface SNAP-GIPR expression ([5]; replicate 14): 0.2293 | Surface SNAP-GIPR expression ([5]; replicate 15): 0.3425 | Surface SNAP-GIPR expression ([5]; replicate 16): 0.4052 | Surface SNAP-GIPR expression ([5]; replicate 17): 0.4309 | Surface SNAP-GIPR expression ([5]; replicate 18): 0.3854 | Surface SNAP-GIPR expression ([5]; replicate 19): 0.4111 | Surface SNAP-GIPR expression ([5]; replicate 20): 0.3991 | Surface SNAP-GIPR expression ([5]; replicate 21): 0.5534 | Surface SNAP-GIPR expression ([5]; replicate 22): 0.4128 | Surface SNAP-GIPR expression ([5]; replicate 23): 0.3708 | Surface SNAP-GIPR expression ([5]; replicate 24): 0.3827 | Surface SNAP-GIPR expression ([5]; replicate 25): 0.2399 | Surface SNAP-GIPR expression ([5]; replicate 26): 0.2568 | Surface SNAP-GIPR expression ([5]; replicate 27): 0.1279 | Surface SNAP-GIPR expression ([5]; replicate 28): 0.1278 | Surface SNAP-GIPR expression ([5]; replicate 29): 0.1867 | Surface SNAP-GIPR expression ([5]; replicate 30): 0.2491 | Surface SNAP-GIPR expression ([5]; replicate 31): 0.2077 | Surface SNAP-GIPR expression ([5]; replicate 32): 0.1171 | Surface SNAP-GIPR expression ([5]; replicate 33): 0.1153 | Surface SNAP-GIPR expression ([5]; replicate 34): 0.2022 | Surface SNAP-GIPR expression ([5]; replicate 35): 0.2952 | Surface SNAP-GIPR expression ([5]; replicate 36): 0.2071 | Surface SNAP-GIPR expression ([5]; replicate 37): 0.2146 | Surface SNAP-GIPR expression ([5]; replicate 38): 0.1357 | Surface SNAP-GIPR expression ([5]; replicate 39): 0.1562 | Surface SNAP-GIPR expression ([5]; replicate 40): 0.1831 | Surface SNAP-GIPR expression ([5]; replicate 41): 0.2136 | INS-1 cAMP (100 nM) [6]: -0.2661 | AD293 100 pM cADDis ([7]; AD293, 100 pM): -0.704 | AD293 100 nM cADDis ([7]; AD293, 100 nM): 4.118
